Data reported in patent US12006356 (JUNO THERAPEUTICS, dated 2024).

Tests used:
murine CCT5 = target: T1, murine CCT5 (mouse, UniProt P80316 2-541); assay: immunoprecipitation and Western blot, B16-F10 cells
T1 construct: Endogenous CCT5 in B16-F10 melanoma cells; also called mouse CCT5

human CCT5 = target: T2, human CCT5 (human, UniProt P48643 2-541, limits assumed); assay: immunoprecipitation from cytosolic and plasma membrane lysate fractions, Western blot for CCT5
T2 construct: also called Chaperonin Containing TCP1 Subunit 5; TRiC protein CCT5
Source text: Cytosolic and plasma membrane (surface) lysate preparations of SK-BR-3 and OvCar3 cells were probed by Western blot for CCT5 after immunoprecipitation with the antibody identified Example 1, or a negative control antibody, Panitumumab.

PRPF8 = PRPF8 (UniProt Q6P2Q9 2-2335); assay: immunoprecipitation from OvCar8, SKBR3 and MIAPACA2 lysates, Western blot with rabbit polyclonal antibodies
Experimental: (§1) A. Immunoprecipitation and Mass Spectrometry to Identify Candidate Target Proteins Whole cell lysates of exemplary ovarian or leukemia cell lines were used for immunoprecipitation experiments with the antibody identified in Example 1. The identified antibody was covalently conjugated to magnetic epoxy beads, and 10 µg of bead-bound antibody were incubated with 1-2 mL whole cell lysate (at 1 mg protein/mL lysate) of ovarian carcinoma cell line (OvCar8) or acute myeloid leukemia cell line (SKM1). The cell lysates were also incubated with control antibodies known to bind the cell line, or beads alone. The immunoprecipitates were then washed and eluted first with low pH, and second with a cationic detergent elution buffer. The eluates were resolved by SDS-PAGE and stained with a protein stain to visualize the bands.
(§2) The immunoprecipitation with the identified antibody was repeated, with OvCar8 cells and also SKBR3 (breast cancer) and MIAPACA2 (pancreas carcinoma) cell lines. The eluates were resolved by SDS-PAGE, transferred for Western blot analysis using rabbit polyclonal antibodies specific to the top 10 candidate proteins identified in part A: RalGapa2, RalGapB, SPTAN1, IMPDH2, DNAJC13, SPTAN1, SNRNP200, PRPF8, CCT4, and CCT2. CCT2 and CCT4 were specifically detected in the immunoprecipitates from all assessed cancer cell lines. No bands corresponding to the other proteins were detected. CCT2 and CCT4 are both part of the TCP1 ring complex (TRiC).

RalGapB = target: T3, RalGapB (UniProt Q86X10 1-1494, limits assumed); assay: as above
T3 sequence (looked up): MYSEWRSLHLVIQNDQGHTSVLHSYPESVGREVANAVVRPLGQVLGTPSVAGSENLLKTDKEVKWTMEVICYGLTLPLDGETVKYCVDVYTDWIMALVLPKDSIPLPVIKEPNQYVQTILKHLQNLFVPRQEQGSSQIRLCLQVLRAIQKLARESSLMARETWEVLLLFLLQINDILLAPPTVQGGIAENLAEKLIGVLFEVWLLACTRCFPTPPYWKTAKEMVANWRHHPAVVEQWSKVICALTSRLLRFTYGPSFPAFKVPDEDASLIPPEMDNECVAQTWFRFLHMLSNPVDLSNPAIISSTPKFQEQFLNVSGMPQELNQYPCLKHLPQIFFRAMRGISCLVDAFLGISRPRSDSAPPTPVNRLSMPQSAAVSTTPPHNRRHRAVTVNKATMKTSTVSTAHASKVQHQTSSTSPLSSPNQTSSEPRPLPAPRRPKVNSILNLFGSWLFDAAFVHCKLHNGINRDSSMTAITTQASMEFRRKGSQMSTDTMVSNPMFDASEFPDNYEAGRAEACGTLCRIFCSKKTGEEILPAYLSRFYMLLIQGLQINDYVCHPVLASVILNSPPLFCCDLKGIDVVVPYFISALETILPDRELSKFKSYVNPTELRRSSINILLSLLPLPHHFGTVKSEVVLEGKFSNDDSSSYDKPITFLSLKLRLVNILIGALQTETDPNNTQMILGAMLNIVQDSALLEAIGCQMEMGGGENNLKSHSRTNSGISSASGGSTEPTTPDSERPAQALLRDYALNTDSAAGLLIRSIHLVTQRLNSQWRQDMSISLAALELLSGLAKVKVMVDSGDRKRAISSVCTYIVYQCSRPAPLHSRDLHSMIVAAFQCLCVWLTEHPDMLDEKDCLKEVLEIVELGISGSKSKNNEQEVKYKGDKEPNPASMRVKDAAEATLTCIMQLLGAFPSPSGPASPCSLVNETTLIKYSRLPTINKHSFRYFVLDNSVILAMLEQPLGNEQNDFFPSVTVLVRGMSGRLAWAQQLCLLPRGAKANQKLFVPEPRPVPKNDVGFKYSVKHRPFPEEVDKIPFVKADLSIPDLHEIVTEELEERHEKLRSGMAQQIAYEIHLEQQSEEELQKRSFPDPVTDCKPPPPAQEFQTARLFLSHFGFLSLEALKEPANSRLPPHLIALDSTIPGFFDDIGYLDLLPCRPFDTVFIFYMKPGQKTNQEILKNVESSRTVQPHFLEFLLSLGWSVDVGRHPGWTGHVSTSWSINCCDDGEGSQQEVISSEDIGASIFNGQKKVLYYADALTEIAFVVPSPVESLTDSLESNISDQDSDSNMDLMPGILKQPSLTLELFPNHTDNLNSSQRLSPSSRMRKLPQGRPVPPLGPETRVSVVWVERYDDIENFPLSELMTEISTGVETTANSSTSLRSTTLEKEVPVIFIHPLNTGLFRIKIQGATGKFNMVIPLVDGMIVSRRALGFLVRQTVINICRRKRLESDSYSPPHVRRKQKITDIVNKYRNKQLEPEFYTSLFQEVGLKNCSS
Experimental: as §1, §2

SPTAN1 = SPTAN1 (UniProt Q13813 1-2472, limits assumed); assay: as above
Experimental: as §1, §2

SNRNP200 = SNRNP200 (UniProt O75643 1-2136, limits assumed); assay: as above
Experimental: as §1, §2

DNAJC13 = DNAJC13 (UniProt O75165 1-2243); assay: as above
Sequence of DNAJC13 (O75165 whole entry): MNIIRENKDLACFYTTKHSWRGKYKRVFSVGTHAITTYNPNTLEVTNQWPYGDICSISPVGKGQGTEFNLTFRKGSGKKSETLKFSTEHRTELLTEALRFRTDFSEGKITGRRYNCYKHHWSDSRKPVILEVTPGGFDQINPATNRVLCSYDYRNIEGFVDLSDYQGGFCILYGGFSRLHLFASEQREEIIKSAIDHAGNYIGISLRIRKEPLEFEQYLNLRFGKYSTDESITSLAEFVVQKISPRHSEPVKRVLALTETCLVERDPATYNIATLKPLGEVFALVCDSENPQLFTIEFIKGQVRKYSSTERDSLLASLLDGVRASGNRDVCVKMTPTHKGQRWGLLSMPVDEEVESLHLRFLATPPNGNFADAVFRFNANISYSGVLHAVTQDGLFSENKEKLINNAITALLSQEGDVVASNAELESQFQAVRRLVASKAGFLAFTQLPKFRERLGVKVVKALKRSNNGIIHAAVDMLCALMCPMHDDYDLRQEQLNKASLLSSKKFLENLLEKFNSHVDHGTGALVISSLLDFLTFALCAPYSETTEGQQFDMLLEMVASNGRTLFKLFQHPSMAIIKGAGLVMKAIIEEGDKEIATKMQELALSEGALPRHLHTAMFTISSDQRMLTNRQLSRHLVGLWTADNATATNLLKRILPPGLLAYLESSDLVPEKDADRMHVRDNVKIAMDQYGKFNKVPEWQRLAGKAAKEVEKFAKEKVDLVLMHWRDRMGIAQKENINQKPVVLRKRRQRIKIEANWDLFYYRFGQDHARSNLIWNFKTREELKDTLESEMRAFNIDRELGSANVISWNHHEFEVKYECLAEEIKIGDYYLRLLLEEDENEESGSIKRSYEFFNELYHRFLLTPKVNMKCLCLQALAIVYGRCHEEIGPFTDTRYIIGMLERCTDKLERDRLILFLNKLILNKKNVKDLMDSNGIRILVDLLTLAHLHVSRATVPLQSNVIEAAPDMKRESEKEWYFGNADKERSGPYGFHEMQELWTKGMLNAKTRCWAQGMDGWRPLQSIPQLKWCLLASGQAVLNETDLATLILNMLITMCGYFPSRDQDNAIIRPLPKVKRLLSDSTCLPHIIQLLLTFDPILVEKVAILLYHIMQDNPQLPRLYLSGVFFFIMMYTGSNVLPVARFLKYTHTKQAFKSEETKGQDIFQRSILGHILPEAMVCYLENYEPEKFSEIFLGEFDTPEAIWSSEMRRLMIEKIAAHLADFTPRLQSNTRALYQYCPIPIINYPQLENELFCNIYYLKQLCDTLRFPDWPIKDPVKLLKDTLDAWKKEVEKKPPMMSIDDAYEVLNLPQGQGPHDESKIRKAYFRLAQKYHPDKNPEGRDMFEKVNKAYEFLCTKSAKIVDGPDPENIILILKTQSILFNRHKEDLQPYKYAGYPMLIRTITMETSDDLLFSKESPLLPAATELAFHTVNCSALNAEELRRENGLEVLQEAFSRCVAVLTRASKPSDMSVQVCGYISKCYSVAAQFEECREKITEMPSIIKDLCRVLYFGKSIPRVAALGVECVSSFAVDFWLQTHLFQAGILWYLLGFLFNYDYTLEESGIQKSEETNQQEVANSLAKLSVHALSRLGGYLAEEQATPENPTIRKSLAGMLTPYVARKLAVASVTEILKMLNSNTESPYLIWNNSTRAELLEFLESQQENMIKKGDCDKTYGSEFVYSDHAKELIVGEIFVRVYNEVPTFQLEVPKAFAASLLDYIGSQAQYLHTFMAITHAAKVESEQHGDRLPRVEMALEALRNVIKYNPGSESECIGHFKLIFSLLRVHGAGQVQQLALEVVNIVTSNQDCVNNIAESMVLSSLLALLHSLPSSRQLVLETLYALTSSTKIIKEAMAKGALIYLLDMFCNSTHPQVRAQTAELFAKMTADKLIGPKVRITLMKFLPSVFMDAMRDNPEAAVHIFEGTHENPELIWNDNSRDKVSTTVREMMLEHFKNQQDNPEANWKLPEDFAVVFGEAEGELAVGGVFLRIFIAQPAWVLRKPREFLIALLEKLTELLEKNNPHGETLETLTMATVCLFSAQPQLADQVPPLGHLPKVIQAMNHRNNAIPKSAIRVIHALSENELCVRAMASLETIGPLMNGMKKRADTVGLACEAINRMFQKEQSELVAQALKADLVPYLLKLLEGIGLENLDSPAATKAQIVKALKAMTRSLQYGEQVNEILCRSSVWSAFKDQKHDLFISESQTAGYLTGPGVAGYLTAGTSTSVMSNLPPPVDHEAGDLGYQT
Experimental: as §1, §2

RalGapa2 = RalGapa2 (UniProt Q2PPJ7 1-1873, limits assumed); assay: as above
Sequence of RalGapa2 (Q2PPJ7 whole entry): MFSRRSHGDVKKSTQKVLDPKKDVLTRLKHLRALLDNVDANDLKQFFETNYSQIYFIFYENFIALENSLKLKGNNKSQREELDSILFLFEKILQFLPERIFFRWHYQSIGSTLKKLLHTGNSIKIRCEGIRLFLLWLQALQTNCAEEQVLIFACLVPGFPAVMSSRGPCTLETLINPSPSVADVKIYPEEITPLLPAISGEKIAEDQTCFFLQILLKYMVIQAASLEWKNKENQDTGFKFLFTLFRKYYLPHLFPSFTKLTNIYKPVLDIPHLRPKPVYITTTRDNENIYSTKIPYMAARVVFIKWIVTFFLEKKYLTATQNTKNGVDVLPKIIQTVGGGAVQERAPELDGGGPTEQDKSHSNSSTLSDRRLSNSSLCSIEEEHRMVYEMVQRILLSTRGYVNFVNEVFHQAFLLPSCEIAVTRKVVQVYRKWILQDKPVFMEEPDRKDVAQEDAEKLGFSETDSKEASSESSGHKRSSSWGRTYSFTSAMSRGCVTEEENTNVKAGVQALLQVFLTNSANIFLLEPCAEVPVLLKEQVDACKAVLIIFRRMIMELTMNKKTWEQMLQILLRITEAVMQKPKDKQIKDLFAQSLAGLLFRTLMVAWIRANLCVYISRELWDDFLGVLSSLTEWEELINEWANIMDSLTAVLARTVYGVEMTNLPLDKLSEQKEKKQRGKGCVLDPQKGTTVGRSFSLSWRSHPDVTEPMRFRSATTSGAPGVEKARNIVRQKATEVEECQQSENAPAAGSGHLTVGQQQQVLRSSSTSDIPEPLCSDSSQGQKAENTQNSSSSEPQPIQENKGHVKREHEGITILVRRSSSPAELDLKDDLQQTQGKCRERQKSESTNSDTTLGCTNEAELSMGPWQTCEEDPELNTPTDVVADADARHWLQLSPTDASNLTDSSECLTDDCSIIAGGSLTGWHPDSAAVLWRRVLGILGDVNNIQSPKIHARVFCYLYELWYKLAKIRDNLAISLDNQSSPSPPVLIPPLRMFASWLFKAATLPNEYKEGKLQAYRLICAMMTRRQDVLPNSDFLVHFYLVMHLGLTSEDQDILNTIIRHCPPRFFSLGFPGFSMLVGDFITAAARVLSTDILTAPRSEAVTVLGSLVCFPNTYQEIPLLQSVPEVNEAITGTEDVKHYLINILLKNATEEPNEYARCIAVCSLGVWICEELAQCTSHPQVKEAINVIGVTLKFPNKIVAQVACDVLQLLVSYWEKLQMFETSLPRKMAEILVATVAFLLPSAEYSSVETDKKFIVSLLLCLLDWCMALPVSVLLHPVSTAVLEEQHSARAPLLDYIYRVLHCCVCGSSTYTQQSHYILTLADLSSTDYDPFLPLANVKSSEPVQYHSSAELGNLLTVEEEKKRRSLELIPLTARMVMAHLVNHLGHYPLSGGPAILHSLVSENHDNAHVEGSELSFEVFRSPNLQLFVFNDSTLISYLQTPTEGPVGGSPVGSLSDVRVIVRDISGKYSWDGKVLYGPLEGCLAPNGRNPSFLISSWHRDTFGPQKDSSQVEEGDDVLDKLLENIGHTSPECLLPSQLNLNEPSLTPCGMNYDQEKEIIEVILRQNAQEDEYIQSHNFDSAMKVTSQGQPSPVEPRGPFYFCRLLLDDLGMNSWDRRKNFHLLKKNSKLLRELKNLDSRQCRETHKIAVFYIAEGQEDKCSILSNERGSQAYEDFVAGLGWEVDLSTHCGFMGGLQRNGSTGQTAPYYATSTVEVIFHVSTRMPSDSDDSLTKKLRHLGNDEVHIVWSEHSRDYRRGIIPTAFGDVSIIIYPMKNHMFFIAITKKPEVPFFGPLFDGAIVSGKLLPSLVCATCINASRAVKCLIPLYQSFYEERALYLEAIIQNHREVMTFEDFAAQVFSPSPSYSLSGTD
Experimental: as §1, §2

T1 sequence (P80316 2-541 limits assumed): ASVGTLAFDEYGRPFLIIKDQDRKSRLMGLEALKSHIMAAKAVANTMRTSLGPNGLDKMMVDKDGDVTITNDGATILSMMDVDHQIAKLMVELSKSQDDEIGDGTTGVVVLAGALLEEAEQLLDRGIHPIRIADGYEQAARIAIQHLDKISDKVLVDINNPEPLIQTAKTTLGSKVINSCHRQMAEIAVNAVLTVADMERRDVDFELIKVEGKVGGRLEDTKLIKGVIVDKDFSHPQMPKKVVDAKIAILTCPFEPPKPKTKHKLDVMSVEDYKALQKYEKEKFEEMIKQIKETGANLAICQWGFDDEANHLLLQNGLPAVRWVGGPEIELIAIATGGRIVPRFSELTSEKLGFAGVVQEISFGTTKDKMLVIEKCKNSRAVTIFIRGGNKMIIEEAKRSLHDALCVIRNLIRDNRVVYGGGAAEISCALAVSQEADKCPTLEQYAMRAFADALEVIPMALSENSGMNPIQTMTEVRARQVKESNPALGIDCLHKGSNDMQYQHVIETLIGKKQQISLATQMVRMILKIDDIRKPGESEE

B1: exemplary anti-CCT5 antibody identified in Example 1 (antibody, V domains shown)
VH: EVQLVESGGGLVQPGGSLRLSCAASGFTFSSYSMNWVRQAPGKGLEWVSYISSSSSTIYYADSVKGRFTISRDNAKNSLYLQMNSLRDEDTAVYYCARDFKGDCSSTSCYRGGYYYYYGMDVWGQGTTVTVSS
VL: SYELTQPPSVSVSPGQTASITCFGDQLGDKYVSWYQKKPGQSPVLVIYQDANRPSGIPERFSGSNSGNTATLTIRGTQNLDEADYYCQTWGTTTALFGGGTKLTVL
notes: For immunoprecipitation it was covalently conjugated to magnetic epoxy beads; also called the identified antibody
binding result (murine CCT5): binds
binding result (human CCT5): binds
binding result (PRPF8): no binding
binding result (RalGapB): no binding
binding result (SPTAN1): no binding
binding result (SNRNP200): no binding
binding result (DNAJC13): no binding
binding result (RalGapa2): no binding
